According to article PMC9088798, “An Approach to Derive Functional Peptide Inhibitors of Transcription Factor Activity” (JACS Au, 2022):

Assays:
[1] = target: cJun bZIP domain (UniProt P05412)
[2] = target: cJun bZIP domain (UniProt P05412); remark: listed apart in the source
[3] = target: cJun bZIP domain (UniProt P05412); remark: listed apart in the source
[4] = target: cJun bZIP domain (UniProt P05412); experiment: ITC; antagonist peptide injected into cJun; single-site binding model
[5] = target: cJun bZIP domain (UniProt P05412); experiment: circular dichroism thermal denaturation; loss of CD signal at 222 nm with temperature; total peptide 10 μM, equimolar components
[6] = target: cJun bZIP domain (UniProt P05412); experiment: circular dichroism spectra; CD spectra at 20 °C; heterodimeric sample compared with the average of the component spectra; total peptide 10 μM, equimolar components

Sequence of cJun bZIP domain (P05412 252-315): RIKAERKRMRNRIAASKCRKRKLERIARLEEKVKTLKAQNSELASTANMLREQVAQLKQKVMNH

With A-FosW (designed binder) the TBS assay in E. coli: colony numbers relative to TRE-mDHFR only (removal of the cJun transcriptional block) [1] was 60%, the IC50 of reversal of the TRE DNA CD peak shift at ~281 nm (cJun 20 μM, TRE DNA 5 μM); blocks cJun binding to TRE DNA [2] was 16 µM and the IC50 of restoration of the free TRE DNA band in EMSA (cJun bZIP 20 μM, TRE DNA 2 μM); blocks cJun binding to TRE DNA [3] was 12.1 µM. It also gave a Kd [4] of 88.3 nM, a dH [4] of -153 kJ/mol and a stoichiometry N [4] of 1.04. For the same substance, the Tm of the heterodimer [5] was 69.9 °C, the ΔTm of the heterodimer against the average of the component denaturation profiles [5] was 27.5 °C and the increase in α-helical content over the average of the component spectra [6] was 39%.
FosW (designed binder) gave an IC50 of reversal of the TRE DNA CD peak shift at ~281 nm; blocks cJun binding to TRE DNA [2] of 120 µM and a Tm of the heterodimer [5] of 54 °C.
